Assay results published in the DeepSol protein solubility set.

Test: soluble on expression in E. coli; label from the status in PepcDB or PDB records
With “MSKTRMEKLKTLKTIAETLNQGHDIKATLDEVLKELLSLTNLQSGWIFLIEEDGSYTLAADAYLPPALSRKEKVLMCEGECYCLTKFNNGGLRKAANIMNCKRIESAENLHCFDTEGITHHATVPLEDGDRRFGLLNVAAAGKTMFDEEELHLLESVAFQIGTAIQRMRLSEYQQK” the “soluble on expression in E. coli” value was “not soluble”.
With “MGSDKIHHHHHHMLTSRKFFPSLSSLRALEALDRLGSASAVAEELALTQSAVSRQLQTLEGQMGVELIRRDRKRLSLTPAAQDYVTEIREALNRIAQASLRLQVAPAGGTVNLAILPTFGMRWLMPRLPEFSRLHPDITINMTTRLRPFNFASEPFDAALHFGEPDWPGTDRLLLRAERVLPVCAPGLLPHGAPKSPADLLRLPLLHIQTRPRAWQDWFAQMGVTCPETLPGTLYDQFATIGQAALHGLGVALLPNYVVEQDLATGRLVAAYPDAVETLGAYYLVWPRARGNDPSLRAFRHWLAAQAEPEEGLPR” the “soluble on expression in E. coli” value was “not soluble”.
With “MNDHKALKIFLMAAEKRNFAQVARELSMTAAGVTRAIAALECDLGVQLFVRTTRQVSLTTDGAVFAAQIQPAVEALENARRDVRNAHKADEGRLRISAPTWLGKTVLPPILSGFRELYPKMCFEISLSDGLVNIVDDDYDLAIRISSAPSDKFTIWRKIRAVPRILVAAPGSRFTQMKHPSDLTPDDCLAYSGESRRENWILSDGGSSITITAGRAFSANNGEVLADMAADGAGVAMLPGFHIAEHIRSGRLVHVLPGWAPPELWLTLYYPPYQTLPPRIATFSKFFEEQLTAHMVALD” the “soluble on expression in E. coli” value was “not soluble”.
For “MRPQIMPFYIEMGKGDGGITGEDILQNWMLKSNLKNVEILEELPLRPTKLVVAISEEIYPDVYTIEDFKEKVGDREVFIASEFPEIARKYAEKHGLNAIVFDPIGKTEAALLPPMPEADLIIEITEFGTTLKENMCRIIDLVMDKVHSVFIVNKESLKDEEKKQVMENLVTDLKEVIESRNLVSFYFNVPNEDDLRRIIDYLTENGFDPTISPLAKGGAAVHIIVDRSRVKFLKPIIRGMGAKRIATSPVITSGTNRAAQQKPFYLLSGIQREFPSASPFF”, the “soluble on expression in E. coli” value was “not soluble”.
In the case of “GHHHHHHAIAENLYFQSAQYKGAASEAGRAMHLMKKREKQREQMEQMKQRIAEENIMKSNIDKKFSAHYDAVEAELKSSTVGLVTLNDMKAKQEALVKEREKQLAKKEQSKELQMKLEKLREKERKKEAKRKISSLSFTLEEEEEGGEEEEEAAMYEEEMEREEITTKKRKLGKNPDVDTSFLPDRDREEEENRLREELRQEWEAKQEKIKSEEIEITFSYWDGSGHRRTVKMRKGNTMQQFLQKALEILRKDFSELRSAGVEQLMYIKEDLIIPHHHSFYDFIVTKARGKSGPLFNFDVHDDVRLLSDATVEKDESHAGKVVLRSWYEKNKHIFPASRWEPYDPEKKWDKYTIR”, the “soluble on expression in E. coli” value is reported as “not soluble”.
In the case of “MGSDKIHHHHHHMQRYDAVISGAGPAGCSAALSLAQKGRRVLLIDKARFPREKICGDGVTAASTELLEEMGVLELLRQRPGSLTEFRGATFVSPGGTVVQGRILRNGHLSGSSYVIPRMVLDDSLVSRVKEHSSITFLDKTTVTGLVMDGDRARGVATSAGEFCGRIIIAADGAYSPIAKQLDLWNRDKRQQGFAMRAWFSGVEGLGDSIELCYDKAMLPGYGWIFPAGEQRANVGVFLLPRFADQRSTKRLFKSFVKENAFAAARLKNAVMEPGSLKSWPLPFGSFAGRRGRGNVLLAGDAGSFIDPLTGEGIYYALKTGRYAAEAVANALERNDESAALTRYEQLWRGEFSGRVYFPGYAFQHFMNNSWFVDTFMRYTAKKQHRADLLADVVAHNRKRRELFKLLNPFY”, the “soluble on expression in E. coli” value is reported as “not soluble”.
For “MARSRRDKNVSLTKVKKKTKDTKNNLVNEVRASVDQYKNLFIFTIANMRSTRFIAIRQKYKENSRFFFGKNNVISIALGKQKSDEYANQLHKASAILKGQCGLMFTNMSKKEVEAEFSEASEEDYARVGDVATETVVLPEGPISQFAFSMEPQLRKLGLPTKLDKGVITLYQQFEVCKEGEPLTVEQAKILKHFEVKMSQFRLIFKAHWNKKDGFKELDA”, the “soluble on expression in E. coli” value was “not soluble”.
With “MAHHHHHHMPLRIGGFNVCCYHDCTNAAAIHAELKRRHIDAAVVDHAFLISPLQLAVALFRVEGSADMLTTRSPFTISPPLAEASSPSPTSTSASPSLPPLLQQQPTRRVSNSRQIFAALSLSHNLDRILQVLPPGPQTTSVVIIYKRSGSARAAAVSFADDVGADSAVASTVPDGDGLDATINACVQLTNSAAQAHTFALITEPFWTGAAFAFADVSKVALFYGISESMLLAAQRSMTRADVRRVCVGAESQEAPAQVLRWHALEVCVTTLLSACTA” the “soluble on expression in E. coli” value was “soluble”.
With “MAHHHHHHMLRRSVVNLQNPARVFRSAAKRQKLDEAVRVDQAGEVAAVRICKYQLLWMSPLDSGVPVVKEILRDELVHEEVMGHLARKHSVRLTLLDPLFHVGAFVMGSCTALLGKDAVMCCHAAVEVTIAQHYNDQLRELQSLEESEGASKGKDEKDWAEVMEYVARFRDEELHHQELGEQNGAENAPAYPLLYNGIRIMCSLGVALAKRI” the “soluble on expression in E. coli” value was “not soluble”.
In the case of “MAHHHHHHMKNFASWALRLHQDGISEERPQLGKQLYDKVCTVQTVKDYPGLRFKDMKEAIGFPIKRDDMFLPASMKEKRQQQQQIGVPPRRSQCFTCGQLGHYSNTCGVFKHKLNTRQKSDIQFKKQ”, the “soluble on expression in E. coli” value is reported as “not soluble”.
For “MSTGATIVIDLGKTLSKVSLWDLDGRMLDRQVRPSIPLEIDGIRRLDAPDTGRWLLDVLSRYADHPVTTIVPVGHGAGIAALTDGRLAFPPLDYEQSIPEAVMADYRSQRDPFARTGSPALPDGLNIGSQLWWLDQLHPDVMANATLLPWAQYWAWFLTGRAVSEVTSLGCHSDLWDPQDGDFSPMAKRLGWAARFAPIVRAGDTVGALLPAIAERTGLSPDVQVLAGLHDSNAALLAARLEHHHHHH”, the “soluble on expression in E. coli” value was “not soluble”.
For “VPACTVSNTTVDWQDVEIQTLSQNGNHEKEFTVNMRCPYNLGTMKVTITATNTYNNAILVQNTSNTSSDGLLVYLYNSNAGNIGTAITLGTPFTPGKITGNNADKTISLHAKLGYKGNMQNLIAGPFSATATLVASYS”, the “soluble on expression in E. coli” value was “soluble”.
With “MGSDKIHHHHHHMSNVISVENLGKKYLISHQGREPYTALRDVLTDGARAFYRRLFSPGTSQADAQAEEFWALKDVSFEVKQGDRIGIIGRNGAGKSTLLKILSRITEPTEGRVRIRGRVASLLEVGTGFHPELTGRENIFLNGAILGMNRAEIARKFDEIVAFAEIEKFLDTPVKRYSSGMYVRLAFAVAAHLEPEILIVDEVLAVGDAQFQNKCLGKMEDVSTKEGRTVLFVSHNMGAIDRLCTRAVLLERGRVRLADFTKPVIQMYLDKAKNAISAWSCSTSIPDFDGIFFESISIVNKDRKIAEVLPSNEPFSITLVVNATASLKGVQIAIRITNEQGIPILTTTNCDKAGKLQEISRGRYRYTVSLPASFLPPGYYTLIVASFVPGEKLFDGVEDKLGFCIDDMGSLATLMKDGRLGVVTPLMPWDEVRL” the “soluble on expression in E. coli” value was “not soluble”.
With “GMTTEVKQSPRERLLEAAAALTYRDGVGIGVEALCKAAGVSKRSMYQLFESKDELLAASLKERSAAFVAKALPPADDGRSPRERILYVFERVESQAGAPDFQGCRYLAVQIELKDQAHPASRVAYQIKADLMAFFRSEAERGGASDPDLLARQLILVFDGASARAGIGADNLTGLIVPTLTTLLDAADMH” the “soluble on expression in E. coli” value was “soluble”.
In the case of “MAHHHHHHMYSFSLASNRKRAIPNASGLAPPAAAHVIRAPSELKPHQRLPQPLNEAADDAADDDVMQVSNARFGWHPAHAHAPTSSLYSVRPPAEQLVHVHNLNAYAGLRDAADWSVEVQREREQKKRRALAQHEAVKLEEQRHRDAHEEQTKKEMQQRRLERQQERAELREADAMADFQERNTQFLQNQLWLMQLGSYVKQTDAQHKAHVREELHKSSSSRNHLDVDHASTTCWTGTKARGHHASAPSTEIDLRQAAEATEEAYVRLSLAYRNEAQRSRAAAAILHPGELTGKGRSRLQAIRPAGAFASPTSPSAPSQAATAVSTPSHSPAASPAPAAVTEAAAKVSAPFHTAPPMFTHTSTENMGQHANAIPYTYIPEYFDAPSAAATTGKVPAPHRAGESPEQQETGAVMPLPLSPVPVSRDVTGALQARYYPWALYSAATVRKSMLPPLPPPREASLPVRRWGAAELRDSMFGHCILEDGTIQDQCERKKVCAAYLSYTTLPRDNATATSNAAVEPQEPLHFGKRMDIWL”, the “soluble on expression in E. coli” value is reported as “not soluble”.
